Experimental data taken from patent publication US9345662B2, “Degradable hydrogel compositions and methods” (RUTGERS, THE STATE UNIVERSITY OF NEW JERSEY, priority 2008, dated 2016).

Assay: In vitro release (cumulative cleavage) from PEG-Glu-Lys conjugates in PBS (fluorescamine assay)
Format: physicochemical
Protocol: PEG-Glu(NH2)-(α)Lys(Z)OMe conjugate (15 mg) was dissolved in PBS (15 ml) and incubated at 37° C. Aliquots (50 μL) were taken at regular time intervals and the sample aliquots were dried using a CentriVap (Labconco Corporation, Kansas City, Mo.). The cumulative cleavage (%) of Lys(Z)OMe from PEG-Glu(NH2)-(α)Lys(Z)OMe conjugate was measured using fluorescamine assay^24.
PEG-Glu(NH2)-(ε)Lys(Z)OMe conjugates (15 mg) was dissolved in PBS (15 ml) and incubated at […] Aliquots (50 μL) were taken at regular time intervals and the sample aliquots were dried using a CentriVap (Labconco Corporation, Kansas City, Mo.). The cumulative cleavage (%) of Z-LysOMe from PEG-Glu(NH2)-(ε)Lys(Z)OMe conjugate was measured using fluorescamine assay^24.

## PEG-Glu(NH2)-(α)Lys(Z)OMe [PEG-Glu(NH2)-(α)Lys(Z)OMe conjugate]
37° C., at the time under E13
  release (cumulative cleavage) of Lys(Z)OMe from conjugate: ~99%
37° C., extent under E12
  time of Lys(Z)OMe release from conjugate: 490 h

## PEG-Glu(NH2)-(ε)Lys(Z)OMe [PEG-Glu(NH2)-(ε)Lys(Z)OMe conjugate]
7° C., at the time under E15
  Z-LysOMe released from conjugate: 99%
7° C., extent under E14
  time of Z-LysOMe release from conjugate: ~29 h
